This data set concerns MBP5-TEV-paramyosin ΔSal (maltose binding protein domain and a paramyosin fragment linked by a TEV protease recognition sequence).

For “commercially available TEV protease (New England Biolabs, Inc. Catalog #P8112S)”, the “cleavage of the substrate, 4° C., 1 hour” value is “the commercially available enzyme only produced 62% cleavage in the same time”; the “cleavage of the substrate, 4° C., 3 hours” value is “the commercial enzyme cleaved only 76% and 83% of the substrate at these times, respectively”; the “cleavage of the substrate, 4° C., 5 hours” value is “the commercial enzyme cleaved only 76% and 83% of the substrate at these times, respectively”.

Source of the values: patent publication US20260234592.
